According to PMC8280819 (The EMBO Journal, 2021):

Molecular target: His‐SigH (Mycobacterium tuberculosis, UniProt P9WGH8 1-216)
Test: BLI

Chain of His‐SigH (P9WGH8 whole entry): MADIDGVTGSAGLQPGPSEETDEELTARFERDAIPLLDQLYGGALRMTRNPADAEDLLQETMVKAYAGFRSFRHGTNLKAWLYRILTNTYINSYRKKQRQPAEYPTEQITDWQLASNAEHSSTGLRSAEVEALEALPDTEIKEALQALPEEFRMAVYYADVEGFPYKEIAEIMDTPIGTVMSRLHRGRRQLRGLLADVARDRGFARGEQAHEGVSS

B1: His‐AosR (Rv1332, actinomycetes oxidative stress regulator) (natural protein)
chain: MPPVCGRRCSRTGEIRGYSGSIVRRWKRVETRDGPRFRSSLAPHEAALLKNLAGAMIGLLDDRDSSSPSDELEEITGIKTGHAQRPGDPTLRRLLPDFYRPDDLDDDDPTAVDGSESFNAALRSLHEPEIIDAKRVAAQQLLDTVPDNGGRLELTESDANAWIAAVNDLRLALGVMLEIGPRGPERLPGNHPLAAHFNVYQWLTVLQEYLVLVLMGSR
  response, fold over reducing conditions: 3 fold
